In US7026443:

Columns and labels:
HLA-A*1101 (human) [1] = assay: competition with 125I-labelled standard peptide for purified HLA, gel filtration
HLA-A*3101 (human) = assay: as above
HLA-A*6801 (human) = assay: as above
HLA-A*0301 (human) [2] = assay: as above
HLA-A*1101 (human) [3] = assay: competition with 125I-labeled standard probe peptide for purified HLA-A*1101, gel filtration
HLA-A*1101 (human) [4] = biological target: HLA-A*1101 (human)
HLA-A*0301 (human) [5] = assay: competition with 125I-labelled standard peptide for purified HLA-A*0301, gel filtration
HLA-A*1101 (human) [6] = assay: inhibition of 125I-labeled standard peptide binding to purified HLA-A*1101, gel filtration
HLA-A*0201 (human) [7] = assay: competition with 125I-labeled standard probe peptide for purified HLA-A*0201, gel filtration
HLA-A*0201 (human) [8] = assay: competition with 125I-labelled standard peptide for purified HLA, gel filtration; conditions: remark: other sources report otherwise
HLA-A*0301 (human) [9] = biological target: HLA-A*0301 (human)
HLA-A*0201 (human) [10] = assay: competition with 125I-labelled standard peptide on purified HLA, gel filtration; conditions: remark: other sources report otherwise
HLA-A*0206 (human) = assay: as above; conditions: remark: other sources report otherwise
HLA-A*0203 (human) = assay: as above; conditions: remark: other sources report otherwise
HLA-A*0201 (human) [11] = assay: competition against 125I-labelled standard peptide on purified HLA-A*0201, gel filtration
HLA-A*1101 (human) [12] = assay: competition with 125I-labeled standard peptide for purified HLA-A*1101, gel filtration
HLA-A*1101 (human) [13] = assay: competition with 125I-labeled standard peptide for purified HLA, gel filtration
HLA-A*0301 (human) [14] = assay: as above
HLA-A*0301 (human) [15] = assay: competition with 125I-labeled standard probe peptide for purified HLA-A*0301, gel filtration
HLA-A*0301 (human) [16] = assay: competition with 125I-labelled standard probe peptide for purified HLA-A*0301, gel filtration
[17] = biological target: purified HLA-A*0201 molecules (human)

YAVCDKCLK (modifications not checked) [HPV16 E6 peptide …] gave a binding affinity ratio (IC50 of standard peptide / IC50 of test peptide) (HLA-A*1101 (human) [1]) of 0.001, a binding affinity ratio (IC50 of standard peptide / IC50 of test peptide) (HLA-A*3101 (human)) of 0.0015 and a binding affinity ratio (IC50 of standard peptide / IC50 of test peptide) (HLA-A*6801 (human)) of 0.012. For the same binder, the binding affinity ratio (IC50 of standard peptide / IC50 of test peptide) (HLA-A*0301 (human) [2]) was 0.0003.

For GDTPEWIQR (modifications not checked) [HPV45 E1 327 … (SEQ ID NO: 43619)], the relative binding ratio (IC50 of standard peptide / IC50 of test peptide) (HLA-A*1101 (human) [3]) was 0.0002.

KISEYRHYCY (modifications not checked) [… (HPV16 E6, position 79, 10 amino acids)] showed a binding affinity ratio (IC50 of standard peptide / IC50 of test peptide) (ratio to standard peptide) (HLA-A*1101 (human) [4]) of 0.0038 and a relative binding ratio (IC50 of standard peptide / IC50 of test peptide) (HLA-A*0101 (human)) of 0.009.

With KAAMLAKFK (modifications not checked) [HPV16 E1 204 …] the binding affinity ratio (IC50 of standard peptide / IC50 of test peptide) (ratio to standard peptide) (HLA-A*0301 (human) [5]) was 0.11 and the relative binding ratio (IC50 of standard peptide / IC50 of test peptide) (HLA-A*1101 (human) [6]) was 0.18.

TLRLCVQST (modifications not checked) [HPV31 E7 peptide … (position 64, 9 amino acids)] showed a relative binding ratio (IC50 of standard peptide / IC50 of test peptide) (HLA-A*0201 (human) [7]) of 0.0061.

ILYAHIQCL (modifications not checked) [HPV18 E1 266 peptide …] gave a binding affinity ratio (IC50 of standard peptide / IC50 of test peptide) (HLA-A*0201 (human) [8]) of 0.081.

DCATMCRHY (modifications not checked) [HPV16 E1 peptide … (position 404, 9 amino acids)] showed a relative binding ratio (IC50 of standard peptide / IC50 of test peptide) (ratio to standard peptide) (HLA-A*0101 (human)) of 0.0011 and a relative binding ratio (IC50 of standard peptide / IC50 of test peptide) (ratio to standard peptide) (HLA-A*0301 (human) [9]) of 0.0001.

With WPYLESRITV (modifications not checked) [HPV18 E1 583 peptide …] the binding affinity ratio (IC50 of standard peptide / IC50 of test peptide) (HLA-B*5101 (human)) was 0.055, the binding affinity ratio (IC50 of standard peptide / IC50 of test peptide) (HLA-B*3501 (human)) was 0.0066 and the binding affinity ratio (IC50 of standard peptide / IC50 of test peptide) (HLA-B*0702 (human)) was 0.0067. For the same binder, the binding affinity ratio (IC50 of standard peptide / IC50 of test peptide) (HLA-B*5301 (human)) was 0.014 and the binding affinity ratio (IC50 of standard peptide / IC50 of test peptide) (HLA-B*5401 (human)) was 0.024.

GDTPEWIQR (modifications not checked) [HPV16 E1 334 …] showed a binding affinity ratio (IC50 of standard peptide / IC50 of test peptide) (ratio to standard peptide) (HLA-A*0301 (human) [5]) of 0.0008 and a relative binding ratio (IC50 of standard peptide / IC50 of test peptide) (HLA-A*1101 (human) [6]) of 0.0002.

YMLDLQPETT (modifications not checked) [HPV16 E7 11 …] gave a binding affinity ratio (IC50 of standard peptide / IC50 of test peptide) (HLA-A*0201 (human) [10]) of 0.15, a binding affinity ratio (IC50 of standard peptide / IC50 of test peptide) (HLA-A*0206 (human)) of 1.7 and a binding affinity ratio (IC50 of standard peptide / IC50 of test peptide) (HLA-A*0203 (human)) of 0.0001.

In the case of LLITSNINA (modifications not checked) [HPV16 E1 562 …], the relative binding ratio (IC50 of standard peptide / IC50 of test peptide) (HLA-A*0201 (human) [11]) is reported as 0.0022.

Work on LILALLRYK (modifications not checked) [HPV45 E1 267 peptide … (SEQ ID NO: 43681)] yielded a relative binding ratio (IC50 of standard peptide / IC50 of test peptide) (HLA-A*1101 (human) [12]) of 0.18.

NVLKTSNAK (modifications not checked) [HPV16 E1 peptide … (position 196, 9 amino acids)] showed a relative binding ratio (IC50 of standard peptide / IC50 of test peptide) (HLA-A*1101 (human) [13]) of 0.0015, a relative binding ratio (IC50 of standard peptide / IC50 of test peptide) (HLA-A*0301 (human) [14]) of 0.0005 and a binding affinity ratio (IC50 of the standard peptide / IC50 of the test peptide) (HLA-A*0301 (human) [15]) of 0.0005.

Work on GVLILALLR (modifications not checked) [HPV45 E1 265 … (SEQ ID NO: 43630)] yielded a relative binding ratio (IC50 of standard peptide / IC50 of test peptide) (HLA-A*1101 (human) [3]) of 0.14.

EGTGCNGWF (modifications not checked) [HPV45 E1 peptide … (position 10, 9 amino acids)] gave a binding affinity ratio (IC50 of standard peptide / IC50 of test peptide) (ratio to standard peptide) (HLA-A*0301 (human) [16]) of 0.0008.

With QLKCPPLLI (modifications not checked) [HPV31 E1 peptide … (position 536, 9 amino acids)] the relative binding ratio (IC50 of standard peptide / IC50 of test peptide) [17] was 0.0049.

With QPFILYAHI (modifications not checked) [HPV18 E1 263 peptide …] the binding affinity ratio (IC50 of standard peptide / IC50 of test peptide) (HLA-B*5101 (human)) was 0.21, the binding affinity ratio (IC50 of standard peptide / IC50 of test peptide) (HLA-B*3501 (human)) was 0.0003 and the binding affinity ratio (IC50 of standard peptide / IC50 of test peptide) (HLA-B*0702 (human)) was 0.0002. It also gave a binding affinity ratio (IC50 of standard peptide / IC50 of test peptide) (HLA-B*5301 (human)) of 0.0017 and a binding affinity ratio (IC50 of standard peptide / IC50 of test peptide) (HLA-B*5401 (human)) of 0.0034.

LLCVSPMCM (modifications not checked) [HPV16 E1 297 …] was tested, and the relative binding ratio (IC50 of standard peptide / IC50 of test peptide) (HLA-A*0201 (human) [11]) was 0.0008.

GTGCNGWFYV (modifications not checked) [HPV31 E1 peptide … (position 11, 10 amino acids)] was tested, and the relative binding ratio (IC50 of standard peptide / IC50 of test peptide) (ratio to standard peptide) (HLA-A*0201 (human) [7]) was 0.0006.
